From US8822407B2, “Preparation of conjugates comprising adenine derivatives and allergenic proteins and their use for specific immunotherapy of allengenic diseases” (Universita' Degli Studi di Firenze, priority 2010, dated 2014)

T1: TLR8 (Homo sapiens, UniProt Q9NR97)
T1 construct: expressed in transfected cells; host or cells: HEK293 (transient Nucleofection, Amaxa)
T1 sequence (Q9NR97 27-1041): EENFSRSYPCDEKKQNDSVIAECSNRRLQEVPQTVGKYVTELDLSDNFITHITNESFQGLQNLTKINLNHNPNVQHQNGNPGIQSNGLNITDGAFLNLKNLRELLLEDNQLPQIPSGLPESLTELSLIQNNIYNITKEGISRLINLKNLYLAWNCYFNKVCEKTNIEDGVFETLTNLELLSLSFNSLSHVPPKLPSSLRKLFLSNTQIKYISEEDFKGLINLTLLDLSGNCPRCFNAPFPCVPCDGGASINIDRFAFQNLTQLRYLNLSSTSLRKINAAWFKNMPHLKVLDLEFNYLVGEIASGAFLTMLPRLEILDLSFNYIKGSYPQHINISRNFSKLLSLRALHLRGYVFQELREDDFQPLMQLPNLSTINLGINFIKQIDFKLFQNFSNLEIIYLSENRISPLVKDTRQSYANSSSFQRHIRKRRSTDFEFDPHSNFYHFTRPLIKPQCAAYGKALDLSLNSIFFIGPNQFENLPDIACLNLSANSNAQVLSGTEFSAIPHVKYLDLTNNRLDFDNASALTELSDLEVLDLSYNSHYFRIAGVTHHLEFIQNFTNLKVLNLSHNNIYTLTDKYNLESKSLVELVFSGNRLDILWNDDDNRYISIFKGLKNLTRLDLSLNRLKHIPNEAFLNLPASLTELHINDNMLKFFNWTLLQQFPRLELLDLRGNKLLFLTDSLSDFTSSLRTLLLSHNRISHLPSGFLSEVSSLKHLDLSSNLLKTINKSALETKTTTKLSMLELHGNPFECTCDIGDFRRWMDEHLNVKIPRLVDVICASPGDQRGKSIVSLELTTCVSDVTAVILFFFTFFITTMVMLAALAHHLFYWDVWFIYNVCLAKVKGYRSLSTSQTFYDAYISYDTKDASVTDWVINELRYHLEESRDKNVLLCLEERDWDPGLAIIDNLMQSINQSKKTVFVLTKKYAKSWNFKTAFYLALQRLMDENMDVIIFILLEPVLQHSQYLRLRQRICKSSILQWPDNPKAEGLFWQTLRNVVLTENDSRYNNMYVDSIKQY

B1: nDer p2: purified natural allergen Der p2, major allergen from the house dust mite Dermatophagoides pteronyssinus (protein, UniProt P49278 18-146, looked up)
Mite group 2 allergen Der p 2: DQVDVKDCANHEIKKVLVPGCHGSEPCIIHRGKPFQLEAVFEANQNTKTAKIEIKASIDGLEVDVPGIDPNACHYMKCPLVKGQQYDIKYTWNVPKIAPKSENVVVTVKVMGDDGVLACAIATHAKIRD
modifications: natural purified
notes: purified natural allergen Der p2, major allergen from the house dust mite Dermatophagoides pteronyssinus

Tests used:
TLR8 = molecular target: T1, TLR8; assay: TLR8-transfected HEK293 cells, NF-kB luciferase reporter; format: cell-based; settings: R-848 2 μg/ml; data not shown
Protocol: HEK293 cells are detached by trypsin from the plastic surface of the culture bottle, extensively washed with calcium and magnesium-free PBS, counted and adjusted at the concentration 1×10^6 cells/tube in polypropylene V-bottomed tubes. After the final wash, the cells are pelleted and 100 μl transfection buffer (Amaxa) is added together with […], TLR7, TLR8 or TLR9-encoding and ELAM-1 promoter NF-kB luciferase reporter plasmids. The mixture thus obtained is transferred in special cuvettes and transient transfection is obtained in a special apparatus which is able to directly introduce genetic material into the nucleus (Nucleofection®, Amaxa GmbH). The cells are then recovered and cultured at 1×10^5/ml in 48-flat bottomed plates in E-MEM medium plus 5% foetal calf serum for 18 hrs. […] Finally the luciferase activity is measured in the cellular lysates by a commercial kit (Promega).

[1] = tested on: allergen-specific T cell clones; assay: Functional phenotype of allergen-specific T cell clones; format: cell-based, human; settings: for Clonal Efficiency (%): T cell lines derived in the presence of the stimulus
Description: For the functional analysis of T cell clones specific for nDer p2 and nDer p2-con j, T cell lines are initially derived from MNC of two atopic donors (G. E. and M. A.) affected by bronchial asthma and allergic rhinitis and sensitized to Dermatophagoides pteronyssinus, in the presence of nDer p2- or its respective conjugate nDer p2-conj. […] 28 allergen-specific T cell clones are obtained from T cell lines specific for nDer p2 from donor two and 37 from donor one whereas 28 clones are obtained from T cell lines derived in the presence of nDer p2-conj from both donors.
The allergen-specific clones obtained in the different experimental conditions have been then assessed for their ability to produce IL-4 ([…]) and IFN-gamma (pg/ml) in the culture supernatants after polyclonal stimulation with PMA and anti-CD3 monoclonal antibody.

[2] = tested on: allergen-specific T cell lines; assay: Functional phenotype of allergen-specific cells with different ratios between allergen and modified adenine; format: cell-based, human; settings: T cell lines from atopic donors, Example 5 step d
CRTH2 cells = assay: Phenotype of allergen-specific CRTH2 cells; format: cell-based, human; settings: allergen 10 μg/ml, PMA and ionomicin
Protocol: Mononuclear cells from peripheral blood (MNC) are isolated by density gradient (Ficoll-Hypaque) using buffy coats from Dermatophagoides pteronyssinus-sensitized donors (Servizio Immunotrasfusionale e terapie cellulari, Azienda Ospedaliero Universitaria Pediatrica A. Meyer, Firenze). 500×10^6 MNC are separated by the addition of 500 μl anti-CRTH2 monoclonal antibody for 20 min at room temperature, then extensively washed and incubated again with a secondary polyclonal antibody bound to iron microbeads and finally positively selected on a magnetic column (LS column). 10×10^6 cells are recovered by positive selection, extensively washed with sterile calcium and magnesium-free PBS buffer and cultured at the concentration 1×10^6/ml/well in complete medium plus 5% human AB serum in 24-flat bottomed plates. As stimulants, unconjugated allergens (DP or nDer p2) or conjugates (DP-conj or nDer p2-conj) (all at 10 μg/ml) have been used. Cultures have been incubated for 6 days at 37° C. in 5% CO2 humidified atmosphere and further expanded with rIL-2 25 UI/ml until 14 days when T cell blasts are collected, extensively washed, counted, adjusted at 1×10^6/ml concentration and polyclonally stimulated with PMA and ionomicin as already described to assess the intracellular production of IL-4 and IFN-gamma.

NF-κB expression in TLR8-transfected HEK293 cells (TLR8) | Molecule | Clonal Efficiency (%) ([1]; Donor one) | Clonal Efficiency (%) ([1]; Donor two) | clones producing IL-4 alone ([1]; donor one, PMA and anti-CD3) [%] | clones producing IL-4 together with IFN-gamma (TH0 phenotype) ([1]; donor one, PMA and anti-CD3) [%] | clones able to produce IL-4 alone or together with IFN-gamma ([1]; donor two, PMA and anti-CD3) [%] | % of cells expressing IFN-gamma+ [2] [%] | % of cells expressing IL-4+ [2] [%] | % of cells expressing IFN-gamma+ (CRTH2 cells; Donor #3, CRTH2 cells) [%] | % of cells expressing IL-4+ (CRTH2 cells; Donor #3, CRTH2 cells) [%] | % of cells expressing IL-4+ IFN-gamma+ (CRTH2 cells; Donor #3, CRTH2 cells) [%] | % of cells expressing IFN-gamma+ (CRTH2 cells; Donor #4, CRTH2 cells) [%] | % of cells expressing IL-4+ (CRTH2 cells; Donor #4, CRTH2 cells) [%] | % of cells expressing IL-4+ IFN-gamma+ (CRTH2 cells; Donor #4, CRTH2 cells) [%]
able to induce NF-κB expression | CCOCc1nc2c(N)nc3ccccc3c2n1CC(C)(C)O [Conj R-848, reference compound] | – | – | – | – | – | – | – | – | – | – | – | – | –
– | B1 | 30 | 24 | 56.7 | 29.7 | 75 | 5 | 55.5 | 5.8 | 47.6 | 1.3 | 2.0 | 78.2 | 2.3
